Measured values as given in US20130273053.

Assays:
purified plasma factor B = purified plasma factor B (UniProt P00751)
ST-pro-factor D-His = ST-pro-factor D-His (UniProt P00746)
ST-pro-factor D-His, sequence (P00746 21-253): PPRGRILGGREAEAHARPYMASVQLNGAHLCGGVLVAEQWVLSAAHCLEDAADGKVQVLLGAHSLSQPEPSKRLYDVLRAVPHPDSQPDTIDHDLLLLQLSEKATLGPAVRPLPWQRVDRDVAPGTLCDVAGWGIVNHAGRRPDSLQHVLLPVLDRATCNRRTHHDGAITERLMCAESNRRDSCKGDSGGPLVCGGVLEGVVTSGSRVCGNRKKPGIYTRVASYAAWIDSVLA

full length recombinant human MASP-3 (active), sequence (chain): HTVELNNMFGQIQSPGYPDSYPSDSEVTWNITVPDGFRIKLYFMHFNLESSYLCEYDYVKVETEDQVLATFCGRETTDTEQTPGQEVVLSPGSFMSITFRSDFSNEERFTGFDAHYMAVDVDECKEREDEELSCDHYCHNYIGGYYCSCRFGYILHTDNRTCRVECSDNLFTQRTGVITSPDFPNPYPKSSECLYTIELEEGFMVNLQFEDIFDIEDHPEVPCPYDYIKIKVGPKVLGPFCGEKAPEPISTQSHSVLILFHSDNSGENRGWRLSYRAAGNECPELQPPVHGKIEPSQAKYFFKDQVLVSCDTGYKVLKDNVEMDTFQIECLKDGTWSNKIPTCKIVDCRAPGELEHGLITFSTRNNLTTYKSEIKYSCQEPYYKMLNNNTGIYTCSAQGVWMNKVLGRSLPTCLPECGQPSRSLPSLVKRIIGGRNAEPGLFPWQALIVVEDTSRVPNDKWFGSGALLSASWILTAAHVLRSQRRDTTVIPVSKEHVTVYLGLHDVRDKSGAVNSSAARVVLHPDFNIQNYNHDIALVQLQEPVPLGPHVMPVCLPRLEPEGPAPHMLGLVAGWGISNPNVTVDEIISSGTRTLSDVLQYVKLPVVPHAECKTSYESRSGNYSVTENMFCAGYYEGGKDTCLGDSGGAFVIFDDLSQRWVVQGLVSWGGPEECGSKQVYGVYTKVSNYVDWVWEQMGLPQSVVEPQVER
purified plasma factor B, sequence (P00751 26-764): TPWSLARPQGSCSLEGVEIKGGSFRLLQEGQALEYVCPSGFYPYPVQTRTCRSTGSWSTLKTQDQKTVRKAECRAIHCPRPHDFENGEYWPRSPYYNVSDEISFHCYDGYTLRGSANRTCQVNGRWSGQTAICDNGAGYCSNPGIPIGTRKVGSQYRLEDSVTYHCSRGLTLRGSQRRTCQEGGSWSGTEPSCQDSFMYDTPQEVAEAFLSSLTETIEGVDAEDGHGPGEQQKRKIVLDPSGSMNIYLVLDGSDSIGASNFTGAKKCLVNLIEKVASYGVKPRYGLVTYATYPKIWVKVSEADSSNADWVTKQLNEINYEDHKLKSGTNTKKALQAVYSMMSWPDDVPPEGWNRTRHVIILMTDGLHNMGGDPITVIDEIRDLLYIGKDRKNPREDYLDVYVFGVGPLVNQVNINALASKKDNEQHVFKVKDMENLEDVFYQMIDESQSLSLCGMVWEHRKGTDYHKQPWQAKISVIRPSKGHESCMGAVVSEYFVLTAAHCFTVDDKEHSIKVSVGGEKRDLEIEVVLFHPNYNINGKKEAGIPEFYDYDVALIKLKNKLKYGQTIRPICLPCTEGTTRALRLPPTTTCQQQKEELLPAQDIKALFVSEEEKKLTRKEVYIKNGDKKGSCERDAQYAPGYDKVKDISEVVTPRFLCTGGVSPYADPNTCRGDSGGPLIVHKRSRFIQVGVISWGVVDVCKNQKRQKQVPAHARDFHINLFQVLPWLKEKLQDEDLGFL

Substance: full length recombinant human MASP-3 (active)
- factor B cleavage, Coomassie-stained SDS-PAGE, with C3(H2O) (purified plasma factor B): either MASP-3 or pro-factor D are able to mediate factor B cleavage, as long as C3 is present
- cleavage of pro-factor D substrate, Western blot (ST-pro-factor D-His): only full length MASP-3 (lane 2) and the MASP-1 CCP1-CCP2-SP) fragment (lane 5) cleaved ST-pro-factor D-His6
- cleavage of pro-factor D to factor D, Western blot, no mAb (ST-pro-factor D-His): MASP-3 cleaves approximately 50% of pro-factor D into factor D
